The text below walks through data of patent US20240240140A1.

The target in this assay is mouse TLR5 (toll-like receptor 5) expressed on HEK293/mTLR5 cell line (mouse) (UniProt Q9JLF7). The assay can be described thus: cell-based or functional assay.
UniProt Q9JLF7, sequence (Q9JLF7 27-859): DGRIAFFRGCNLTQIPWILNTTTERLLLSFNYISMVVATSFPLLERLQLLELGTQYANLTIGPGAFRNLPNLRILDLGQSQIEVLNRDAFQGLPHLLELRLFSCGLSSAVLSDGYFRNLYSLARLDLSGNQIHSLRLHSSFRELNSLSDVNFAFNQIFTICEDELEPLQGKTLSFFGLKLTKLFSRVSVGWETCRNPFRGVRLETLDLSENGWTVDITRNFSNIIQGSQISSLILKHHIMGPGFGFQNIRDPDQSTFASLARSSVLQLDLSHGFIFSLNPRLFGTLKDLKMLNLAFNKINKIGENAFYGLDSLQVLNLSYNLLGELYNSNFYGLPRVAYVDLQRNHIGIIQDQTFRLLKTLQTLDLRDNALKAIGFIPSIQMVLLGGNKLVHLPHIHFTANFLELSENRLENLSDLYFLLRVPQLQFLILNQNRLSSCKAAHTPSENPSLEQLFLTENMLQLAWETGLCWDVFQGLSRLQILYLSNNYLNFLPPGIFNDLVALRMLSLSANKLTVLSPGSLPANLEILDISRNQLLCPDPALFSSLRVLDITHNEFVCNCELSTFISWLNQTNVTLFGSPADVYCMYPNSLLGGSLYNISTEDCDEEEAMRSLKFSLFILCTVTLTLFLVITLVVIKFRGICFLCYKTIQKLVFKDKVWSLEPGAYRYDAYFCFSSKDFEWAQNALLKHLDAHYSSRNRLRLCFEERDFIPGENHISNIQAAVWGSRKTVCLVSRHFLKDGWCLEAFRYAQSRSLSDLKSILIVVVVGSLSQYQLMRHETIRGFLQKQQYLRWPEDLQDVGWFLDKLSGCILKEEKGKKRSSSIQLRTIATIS

Regarding “sgFliC (Salmonella gallinarum-derived FliC, filament structural protein, expressed from psgFliC and secreted by attenuated Salmonella gallinarum SG4052) (from UniProt Q06972 1-494) (ligand)”, the QUANTI-Blue SEAP assay using HEK293/mTLR5 cell line (TLR5 stimulation relative to FLA-ST) came to 2 fold.
